Measurements as given in US20140105889A1 (published 2014).

T1: human FcγRIIa type H (allotype H131) (human, UniProt P12318 36-217)
T1 construct: also called FcγRIIaH; FcγRIIa(H)
T1 sequence: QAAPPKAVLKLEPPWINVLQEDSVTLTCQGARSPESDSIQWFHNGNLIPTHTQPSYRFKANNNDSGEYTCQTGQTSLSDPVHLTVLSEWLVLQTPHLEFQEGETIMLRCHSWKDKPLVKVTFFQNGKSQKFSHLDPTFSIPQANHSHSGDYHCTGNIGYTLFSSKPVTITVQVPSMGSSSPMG

T2: human FcγRIIa type R (allotype R131) (human, UniProt P12318 36-217)
T2 construct: also called FcγRIIaR; FcγRIIa(R)
T2 chain: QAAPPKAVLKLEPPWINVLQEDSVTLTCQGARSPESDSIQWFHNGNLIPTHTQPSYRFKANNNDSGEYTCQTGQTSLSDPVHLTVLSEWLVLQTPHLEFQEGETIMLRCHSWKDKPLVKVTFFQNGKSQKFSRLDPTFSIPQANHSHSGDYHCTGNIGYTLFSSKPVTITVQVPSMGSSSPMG

T3: human FcγRIIb (human, UniProt P31994 43-217)
T3 construct: also called FcγIIB
T3 sequence: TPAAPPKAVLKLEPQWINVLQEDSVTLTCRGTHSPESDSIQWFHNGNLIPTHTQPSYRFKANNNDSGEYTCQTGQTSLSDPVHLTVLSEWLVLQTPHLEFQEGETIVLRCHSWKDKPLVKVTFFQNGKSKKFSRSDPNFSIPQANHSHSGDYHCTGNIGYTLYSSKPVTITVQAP

T4: human FcγRIIa(H) (human, UniProt P12318 36-217)
T4 construct: also called hFcgRIIa(H); FcγRIIa type H
T4 sequence: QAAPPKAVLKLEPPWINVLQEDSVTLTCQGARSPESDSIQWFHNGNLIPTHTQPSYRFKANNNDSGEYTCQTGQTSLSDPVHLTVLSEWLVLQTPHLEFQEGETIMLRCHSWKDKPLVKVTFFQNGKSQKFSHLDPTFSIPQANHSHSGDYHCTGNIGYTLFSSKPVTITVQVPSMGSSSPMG

T5: human FcγRIIa(R) (human, UniProt P12318 36-217)
T5 construct: also called FcgRIIaR; FcγRIIa type R
T5 chain: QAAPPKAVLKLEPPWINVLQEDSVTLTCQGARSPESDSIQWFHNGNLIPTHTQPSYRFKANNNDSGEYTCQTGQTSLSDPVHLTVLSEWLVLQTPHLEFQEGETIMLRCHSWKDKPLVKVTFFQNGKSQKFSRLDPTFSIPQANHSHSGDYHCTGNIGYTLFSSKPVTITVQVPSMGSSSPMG

B1: IL6R-BP185/IL6R-L (antibody, human IgG1)
heavy: QVQLQESGPGLVKPSETLSLTCAVSGHSISHDHAWSWVRQPPGEGLEWIGFISYSGITNYNPSLQGRVTISRDNSKNTLYLQMNSLRAEDTAVYYCARSLARTTAMDYWGEGTLVTVSSASTKGPSVFPLAPSSKSTSGGTAALGCLVKDYFPEPVTVSWNSGALTSGVHTFPAVLQSSGLYSLSSVVTVPSSSLGTQTYICNVNHKPSNTKVDKKVEPKSCDKTHTCPPCPAPDYLGDDSVFLFPPKPKDTLMISRTPEVTCVVVDVSHEDGEVKFNWYVDGVEVHNAKTKPREEQYNSTYRVVSVLTVLHQDWLNGKEYKCKVSNAALPKPIEKTISKAKGQPREPQVYTLPPSRDELTKNQVSLTCLVKGFYPSDIAVEWESNGQPENNYKTTPPVLDSDGSFFLYSKLTVDKSRWQQGNVFSCSVMHEALHNHYTQESLSLSP
light: DIQMTQSPSSLSASVGDRVTITCRASQDISSYLNWYQQKPGKAPKLLIYYTSRLHSGVPSRFSGSGSGTDFTFTISSLQPEDIATYYCQQGNTLPYTFGQGTKVEIK
notes: Anti-human IL-6 receptor human IgG1 variant; copies: 2 + 2
B2: IgG1-v1 (antibody)
heavy: not shown
light: DIQMTQSPSSLSASVGDRVTITCRASQDISSYLNWYQQKPGKAPKLLIYYTSRLHSGVPSRFSGSGSGTDFTFTISSLQPEDIATYYCQQGNTLPYTFGQGTKVEIK
notes: copies: 2 + 2
B3: IgG1-v2 (antibody)
heavy: not shown
light: DIQMTQSPSSLSASVGDRVTITCRASQDISSYLNWYQQKPGKAPKLLIYYTSRLHSGVPSRFSGSGSGTDFTFTISSLQPEDIATYYCQQGNTLPYTFGQGTKVEIK
notes: copies: 2 + 2
B4: GpH7-B3 G237P/GpL16-k0 (antibody, human IgG1)
heavy: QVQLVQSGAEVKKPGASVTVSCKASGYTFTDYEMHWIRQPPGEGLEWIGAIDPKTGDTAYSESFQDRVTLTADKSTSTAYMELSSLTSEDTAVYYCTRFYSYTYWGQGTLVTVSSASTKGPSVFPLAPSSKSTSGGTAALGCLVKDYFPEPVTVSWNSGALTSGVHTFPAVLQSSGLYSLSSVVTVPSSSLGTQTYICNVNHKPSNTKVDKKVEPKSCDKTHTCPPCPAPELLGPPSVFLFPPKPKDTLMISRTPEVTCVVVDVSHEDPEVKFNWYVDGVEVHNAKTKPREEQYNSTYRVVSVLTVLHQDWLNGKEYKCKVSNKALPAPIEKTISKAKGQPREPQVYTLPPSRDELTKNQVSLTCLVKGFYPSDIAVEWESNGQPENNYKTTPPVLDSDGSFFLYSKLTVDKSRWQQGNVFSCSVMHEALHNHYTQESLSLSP
light: DIVMTQSPLSLPVTPGEPASISCQASESLVHSNRNTYLHWYLQKPGQSPQLLIYKVSNRFSGVPDRFSGSGSGTDFTLKISRVEAEDVGVYYCSQNTHVPPTFGQGTKVEIE
notes: B3 variant of anti-glypican-3 IgG1; substitution in EU numbering; also called B3 variant
B5: GpH7-B3 S239R/GpL16-k0 (antibody, human IgG1)
heavy: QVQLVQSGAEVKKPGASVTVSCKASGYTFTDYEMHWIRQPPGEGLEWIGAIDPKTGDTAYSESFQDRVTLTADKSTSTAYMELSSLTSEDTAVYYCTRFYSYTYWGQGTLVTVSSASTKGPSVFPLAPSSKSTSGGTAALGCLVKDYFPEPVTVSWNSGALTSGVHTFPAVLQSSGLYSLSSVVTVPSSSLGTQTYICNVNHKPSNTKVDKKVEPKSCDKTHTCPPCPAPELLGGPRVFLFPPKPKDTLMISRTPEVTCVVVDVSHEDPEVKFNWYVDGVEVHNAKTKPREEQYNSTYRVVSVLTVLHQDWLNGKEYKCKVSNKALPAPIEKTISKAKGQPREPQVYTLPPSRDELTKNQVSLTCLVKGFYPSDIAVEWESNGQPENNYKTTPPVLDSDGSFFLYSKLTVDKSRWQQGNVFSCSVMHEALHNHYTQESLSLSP
light: DIVMTQSPLSLPVTPGEPASISCQASESLVHSNRNTYLHWYLQKPGQSPQLLIYKVSNRFSGVPDRFSGSGSGTDFTLKISRVEAEDVGVYYCSQNTHVPPTFGQGTKVEIE
notes: as for B4

What was measured:
[1] = target: T6, human FcγRIIIa type V (allotype V158) (human, UniProt P08637 17-208, limits assumed); assay: SPR (Biacore), antibody captured on the chip, FcγR as analyte
T6 construct: the assay used allotype V158; also called FcγRIIIaV; FcγRIIIa(V)
T6 sequence (P08637 other isoform, or with tags, fused parts or gaps limits assumed): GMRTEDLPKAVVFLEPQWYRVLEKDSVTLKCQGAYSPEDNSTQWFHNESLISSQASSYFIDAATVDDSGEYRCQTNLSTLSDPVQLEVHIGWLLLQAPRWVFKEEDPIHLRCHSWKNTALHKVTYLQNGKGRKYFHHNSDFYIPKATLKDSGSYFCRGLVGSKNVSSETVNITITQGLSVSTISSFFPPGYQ

[2] = target: T1, human FcγRIIa type H (allotype H131); assay: as above
[3] = target: T2, human FcγRIIa type R (allotype R131); assay: as above
human FcγRIIb = target: T3, human FcγRIIb; assay: SPR (Biacore); KD of parent IL6R-B3/IL6R-L for FcγRIIb divided by KD of the variant for FcγRIIb
Source text: Furthermore, KD(IIaR)/KD(IIb) and KD(IIaH)/KD(IIb) in the table respectively represent the value obtained by dividing the KD value of each variant for FcγRIIaR by the KD value of each variant for FcγRIIb, and the value obtained by dividing the KD value of each variant for FcγRIIaH by the KD value of each variant for FcγRIIb.

human FcγRIIa(H) = target: T4, human FcγRIIa(H); assay: SPR (Biacore T100), antibody captured by Protein A, FcγR at 2 µmol/L, 25 C
Procedure: (§1) Next, interaction between these antibodies and FcγR was analyzed kinetically using the Biacore T100 (GE Healthcare). The interaction was measured at a temperature of 25° C. using HBS-EP+ (GE Healthcare) for the running buffer. The Series S Sensor Chip CM5 (GE Healthcare) was used after immobilizing Protein A by amine coupling. […] Antibody captured on the chip was washed by allowing 10 mM glycine-HCl (pH 1.5) to react following measurement. The chip regenerated in this manner was used repeatedly. The dissociation constant KD (mol/L) was calculated from the association rate constant ka (L/mol/s) and dissociation rate constant kd (1/s) as calculated by global-fitting the measurement results with a 1:1 Langmuir binding model using the Biacore

human FcγRIIIa(F) = target: T7, human FcγRIIIa(F) (human, UniProt P08637 17-208, limits assumed); assay: as above
T7 construct: also called hFcgRIIIa(F)
T7 sequence (P08637 other isoform, or with tags, fused parts or gaps limits assumed): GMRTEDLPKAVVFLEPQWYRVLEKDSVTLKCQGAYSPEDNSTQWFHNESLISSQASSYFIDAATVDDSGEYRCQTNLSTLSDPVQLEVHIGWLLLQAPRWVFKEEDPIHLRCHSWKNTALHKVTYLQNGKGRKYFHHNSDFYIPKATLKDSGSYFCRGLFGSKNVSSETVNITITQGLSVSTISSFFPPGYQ
Procedure: as §1

human FcγRIIa(R) = target: T5, human FcγRIIa(R); assay: SPR (Biacore), captured antibody, FcγR analyte; bound/captured amount vs control x100
Procedure: Interaction between each modified antibody and Fcγ receptor prepared in the manner described above was analyzed using the Biacore T100 (GE Healthcare), Biacore T200 (GE Healthcare), Biacore A100 or Biacore 4000. HBS-EP+ (GE Healthcare) was used for the running buffer, and measurements were carried out at 25° C. The chips used were chips in which antigen peptides, Protein A (Thermo Scientific), Protein A/G (Thermo Scientific) or Protein L (ACTIGEN or BioVision) were immobilized on the Series S Sensor Chip CM5 (GE Healthcare) or Series S Sensor Chip CM4 (GE Healthcare) by amine coupling, or chips in which preliminarily biotinylated antigen peptides were allowed to interact and then immobilized on the Series S Sensor Chip SA (certified) (GE Healthcare). The target antibodies were captured on these sensor chips, Fcγ receptor diluted with the running buffer was allowed to interact, followed by measurement of the amount of bound antibody. The amounts bound were compared between antibodies. However, since the amount of Fcγ receptor bound depends on the amount of captured antibody, the values used for comparison were first corrected by dividing the amount of Fcγ receptor bound by the captured amount of each antibody. Through reaction with 10 mM glycine-HCl at pH 1.5, the sensor chips were regenerated by washing off antibody captured on the sensor chips and used repeatedly.

| Binder | binding (RU) (human FcγRIIa(H)) | binding (RU) (human FcγRIIIa(F)) | relative binding activity (human FcγRIIa(R)) | other results |
| --- | --- | --- | --- | --- |
| B1 | – | – | – | Kd [1]: 36 µM; Kd [2]: 7.3 µM; Kd [3]: 0.68 µM; KD(IIb) of the parent polypeptide/KD(IIb) of the altered polypeptide (human FcγRIIb): 44.5 |
| B2 | ~2.5 | ~2.5 | – | – |
| B3 | ~10 | ~5 | – | – |
| B4 | – | – | 8 % of GpH7-B3/GpL16-k0 | – |
| B5 | – | – | 8 % of GpH7-B3/GpL16-k0 | – |
